Measured values from the supplement of paper PMC10567573.

B1: FANCE (parent)
chain: AQVLMLGQILELPWKEETFLVLQS
B2: INTS3 (parent)
chain: KKREFRFHPIKETVVEEPVDITPY

Variants of: B1
Experiment: protein stability index of a GFP-peptide fusion (GPS, HEK-293T) (PSI 1-6); higher = more stable
Conditions: c terminus: a fixed tail appended
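Note: lentivirally expressed fusions sorted by FACS into six bins by GFP to DsRed ratio, PSI derived from sequencing read proportions per bin multiplied by bin number.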

Protein stability index: each site, then its substitutions
L6: E 1.44 | C 3.67 | A 1.48 | D 2.3
Q2: K 2.02 | Y 1.82 | T 3.45 | A 2.05 | D 2 | G 2.21 | I 3.13 | S 2.87 | E 2.48 | F 1.72 | N 3.14 | P 1.55 | H 2.69
V3: Y 2.82 | E 1.82 | H 2.45 | G 1.85 | A 3.44 | P 1.56 | Q 1.72 | N 1.97 | R 2.92 | K 1.32 | D 1.81 | F 3.46 | M 2.09 | T 2.01 | L 3.37 | S 1.95 | I 2.75
A1: W 2.62 | T 4.61 | V 3.34 | E 2.43 | M 3.16 | C 2.51 | I 3.1 | R 1.83 | H 1.25 | N 2.31 | G 2.51 | Q 2.4 | K 1.56 | D 1.77 | L 3.15
L4: M 3.29 | C 3.01 | N 2.04 | H 1.66 | K 2.13 | A 2.02 | R 2.68 | D 3.76 | G 2.25 | Y 2.82 | Q 2.4 | P 2.18 | S 2 | T 2.7 | W 2.28 | E 3.28
M5: R 1.78 | T 1.72 | V 3.14 | A 2.24 | C 1.57 | G 1.05 | D 1.95 | S 1.68 | E 1.79 | K 1.8 | W 2.56 | L 2.3 | Y 2.58 | P 1.79 | N 2.12 | Q 1.76

Variants of: B2
Experiment: as above
Conditions: c terminus: a fixed tail appended

Protein stability index, by site and new letter:
I21: Y 1.56 | Q 2.43 | D 2.37 | R 1.59 | W 2.1 | M 1.7 | N 2 | V 2.63 | K 2.02 | G 1.49 | L 2.01 | H 1.59 | C 2.01 | T 1.95 | A 1.76 | F 1.92 | P 2.5 | S 1.21 | E 2.37
V15: Y 1.84 | A 2.01 | K 1.39 | D 2.35 | C 1.68 | E 2.41 | Q 2 | P 2.13 | I 1.67 | N 1.75 | H 1.82 | T 1.75 | M 2.13 | F 1.91 | L 1.73 | R 1.98 | W 1.53 | G 1.49 | S 1.58
T22: P 1.86 | C 1.82 | H 2.23 | M 1.89 | R 1.99 | W 1.3 | D 2.12 | V 1.58 | Q 1.93 | S 2.33 | I 1.96 | A 1.45 | N 1.72 | G 2.03 | K 1.88 | E 1.97 | Y 2.26 | F 2.57 | L 2.33
T13: C 2.38 | D 2.19 | S 1.55 | Y 3.62 | K 1.96 | W 2.56 | Q 1.96 | V 2.12 | E 2.39 | H 2.06 | N 1.63 | L 1.43 | F 1.54 | I 1.58 | M 1.57 | G 2.33 | A 1.92 | R 1.79 | P 1.75
E12: G 2.93 | T 1.39 | A 1.97 | K 2.19 | P 1.92 | S 1.56 | F 2.96 | Y 2 | Q 2.48 | N 1.86 | H 2.17 | C 2.05 | I 2.61 | M 2.43 | D 1.87 | L 3.92 | W 2.98 | R 1.94
Y24: N 2.03 | E 2.38 | W 1.88 | F 2.18 | V 2.26 | T 2.24 | S 1.84 | Q 2.04 | I 2.33 | R 1.47 | H 1.99 | C 2.16 | K 1.71 | D 2.44 | G 2.44 | P 2.17 | L 2.17 | M 1.76 | A 2.59
D20: S 1.04 | L 1.56 | M 1.96 | W 1.6 | Q 2.02 | H 2.25 | G 2.15 | I 1.7 | P 1.79 | A 1.26 | N 2.2 | V 1.65 | E 2.35 | C 1.61 | K 1.05 | Y 2.16 | F 2.48 | R 2.22 | T 1.67
V14: R 1.35 | G 1.63 | P 1.64 | T 1.42 | D 2.58 | A 1.52 | I 1.91 | F 1.71 | E 1.95 | W 1.91 | C 1.98 | Q 3.65 | Y 1.89 | M 2.19 | K 1.53 | S 3.05 | H 1.89 | N 1.99 | L 1.82
V19: F 1.77 | I 1.51 | G 1.98 | T 1.88 | M 2.23 | R 2.37 | L 1.7 | P 2.06 | D 2.13 | E 2.28 | N 2.02 | H 1.76 | Q 1.8 | C 2.01 | W 1.38 | K 1.88 | Y 2.28 | A 2.67 | S 2.25
E17: A 1.79 | T 2.13 | L 2.15 | W 2.46 | V 2.02 | R 2.32 | G 2.26 | Y 2.06 | C 1.97 | N 2.19 | D 1.79 | H 1.62 | K 1.43 | P 1.59 | I 2.6 | M 1.95 | Q 2.42 | F 1.89 | S 2.24
K11: Q 1.82 | S 2.31 | W 1.61 | T 1.97 | V 2.36 | R 1.88 | Y 2.7
P18: H 1.74 | Y 3.25 | W 2.29 | N 2.26 | I 1.64 | A 1.87 | V 1.83 | E 2.05 | K 2.62 | L 1.85 | Q 2.06 | T 1.36 | C 1.86 | M 1.99 | S 1.79 | R 2.78 | G 1.79 | F 2.72 | D 2.12
E16: F 2.4 | V 1.95 | C 2.46 | R 2.73 | H 1.83 | D 2.18 | S 1.82 | K 2.5 | A 1.73 | T 2.16 | Q 1.86 | P 2.54 | G 2.47 | L 1.88 | M 1.41 | I 2.29 | W 2.1 | Y 2.36 | N 2.39
P23: C 2.08 | W 2.28 | D 2.04 | L 1.84 | T 1.46 | E 3.24 | F 1.67 | I 1.5 | A 1.66 | K 1.99 | M 2.4 | G 3.45 | S 1.61 | Q 1.88 | V 1.44 | H 1.74 | N 1.84 | R 1.55 | Y 2.87
